Source: the supplement of paper PMC9112550, “Optimization of the antimicrobial peptide Bac7 by deep mutational scanning” (BMC Biology, 2022)

Tested on: Escherichia coli TOP10
Test: shrunken log2 fold change of peptide-encoding DNA abundance (4.5 h post-induction vs induction); higher = less antimicrobial activity (less host growth inhibition)
Conditions: time post-induction: 4.5 h; library: site-saturation at positions 5, 18, 19, 20
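Note: peptides expressed intracellularly from a pBAD plasmid library in pooled LB shake-flask culture, induced with 0.3% L-arabinose, DNA abundance read by NGS, three biological replicates, DESeq2 with apeglm shrinkage.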

Sequence	shrunken log2 fold change
RRIRQRPPRLPRPRPRPSEMPRP	0.0648
RRIRQRPPRLPRPRPRPSFGPRP	0.0622
RRIRQRPPRLPRPRPRPSFKPRP	-0.525
RRIRQRPPRLPRPRPRPSFNPRP	-0.48
RRIRQRPPRLPRPRPRPSFPPRP	-0.125
RRIRQRPPRLPRPRPRPSFSPRP	-0.443
RRIRQRPPRLPRPRPRPSGEPRP	0.0168
RRIRQRPPRLPRPRPRPSGHPRP	-0.0673
RRIRQRPPRLPRPRPRPSGKPRP	-0.147
RRIRQRPPRLPRPRPRPSHEPRP	-0.0209
RRIRQRPPRLPRPRPRPSHNPRP	0.547
RRIRQRPPRLPRPRPRPSHRPRP	-0.0821
RRIRQRPPRLPRPRPRPSIWPRP	-0.0257
RRIRQRPPRLPRPRPRPSKIPRP	-0.143
RRIRQRPPRLPRPRPRPSKKPRP	0.0216
RRIRQRPPRLPRPRPRPSLWPRP	0.337
RRIRQRPPRLPRPRPRPSMFPRP	-0.667
RRIRQRPPRLPRPRPRPSMQPRP	-0.0429
RRIRQRPPRLPRPRPRPSMRPRP	0.0637
RRIRQRPPRLPRPRPRPSNCPRP	-0.136
RRIRQRPPRLPRPRPRPSPRPRP	0.31
RRIRQRPPRLPRPRPRPSPVPRP	0.0734
RRIRQRPPRLPRPRPRPSQHPRP	-0.356
RRIRQRPPRLPRPRPRPSQNPRP	-0.383
RRIRQRPPRLPRPRPRPSQTPRP	-0.083

Sequence	shrunken log2 fold change
RRIRQRPPRLPRPRPRPSSRPRP	-0.14
RRIRQRPPRLPRPRPRPSVAPRP	-0.0735
RRIRQRPPRLPRPRPRPSVFPRP	-0.143
RRIRQRPPRLPRPRPRPSWNPRP	-0.238
RRIRQRPPRLPRPRPRPSWRPRP	0.0854
RRIRQRPPRLPRPRPRPSYGPRP	-0.188
RRIRQRPPRLPRPRPRPTALPRP	-0.0491
RRIRQRPPRLPRPRPRPTCPPRP	-0.0183
RRIRQRPPRLPRPRPRPTCQPRP	-0.125
RRIRQRPPRLPRPRPRPTCRPRP	0.133
RRIRQRPPRLPRPRPRPTDTPRP	-0.339
RRIRQRPPRLPRPRPRPTDWPRP	0.0907
RRIRQRPPRLPRPRPRPTEFPRP	-0.113
RRIRQRPPRLPRPRPRPTENPRP	0.0631
RRIRQRPPRLPRPRPRPTFCPRP	-0.0744
RRIRQRPPRLPRPRPRPTFEPRP	-0.177
RRIRQRPPRLPRPRPRPTHVPRP	-0.0938
RRIRQRPPRLPRPRPRPTILPRP	0.939
RRIRQRPPRLPRPRPRPTKFPRP	-0.203
RRIRQRPPRLPRPRPRPTKTPRP	0.298
RRIRQRPPRLPRPRPRPTNMPRP	-0.521
RRIRQRPPRLPRPRPRPTPYPRP	-0.266
RRIRQRPPRLPRPRPRPTQEPRP	0.124
RRIRQRPPRLPRPRPRPTRLPRP	0.723
RRIRQRPPRLPRPRPRPTRVPRP	0.305

Sequence	shrunken log2 fold change
RRIRQRPPRLPRPRPRPTSFPRP	-0.0413
RRIRQRPPRLPRPRPRPTTHPRP	0.00963
RRIRQRPPRLPRPRPRPTTPPRP	0.402
RRIRQRPPRLPRPRPRPTVGPRP	-0.161
RRIRQRPPRLPRPRPRPTWCPRP	0.171
RRIRQRPPRLPRPRPRPTWRPRP	0.345
RRIRQRPPRLPRPRPRPTWSPRP	0.136
RRIRQRPPRLPRPRPRPTYEPRP	-0.0761
RRIRQRPPRLPRPRPRPTYTPRP	-0.346
RRIRQRPPRLPRPRPRPVAKPRP	0.2
RRIRQRPPRLPRPRPRPVAQPRP	0.24
RRIRQRPPRLPRPRPRPVCAPRP	0.118
RRIRQRPPRLPRPRPRPVDNPRP	0.0335
RRIRQRPPRLPRPRPRPVDRPRP	-0.0864
RRIRQRPPRLPRPRPRPVDWPRP	0.39
RRIRQRPPRLPRPRPRPVECPRP	0.0104
RRIRQRPPRLPRPRPRPVEGPRP	0.294
RRIRQRPPRLPRPRPRPVENPRP	-0.0501
RRIRQRPPRLPRPRPRPVERPRP	-0.0839
RRIRQRPPRLPRPRPRPVFGPRP	0.13
RRIRQRPPRLPRPRPRPVFNPRP	-0.291
RRIRQRPPRLPRPRPRPVFSPRP	-0.192
RRIRQRPPRLPRPRPRPVGDPRP	0.203
RRIRQRPPRLPRPRPRPVHAPRP	0.0261
RRIRQRPPRLPRPRPRPVIIPRP	-1.01

Sequence	shrunken log2 fold change
RRIRQRPPRLPRPRPRPVIYPRP	-0.0661
RRIRQRPPRLPRPRPRPVKHPRP	-0.629
RRIRQRPPRLPRPRPRPVKTPRP	0.139
RRIRQRPPRLPRPRPRPVLTPRP	0.0694
RRIRQRPPRLPRPRPRPVNSPRP	-0.0167
RRIRQRPPRLPRPRPRPVPAPRP	0.475
RRIRQRPPRLPRPRPRPVQHPRP	-0.0755
RRIRQRPPRLPRPRPRPVQTPRP	-0.0915
RRIRQRPPRLPRPRPRPVRLPRP	-0.0825
RRIRQRPPRLPRPRPRPVSIPRP	0.0429
RRIRQRPPRLPRPRPRPVTTPRP	0.0606
RRIRQRPPRLPRPRPRPVVDPRP	-0.355
RRIRQRPPRLPRPRPRPVVWPRP	0.586
RRIRQRPPRLPRPRPRPVYFPRP	-0.446
RRIRQRPPRLPRPRPRPVYKPRP	-0.612
RRIRQRPPRLPRPRPRPWCSPRP	-0.0146
RRIRQRPPRLPRPRPRPWETPRP	-0.00136
RRIRQRPPRLPRPRPRPWFHPRP	0.00902
RRIRQRPPRLPRPRPRPWHCPRP	-0.0682
RRIRQRPPRLPRPRPRPWHGPRP	0.0373
RRIRQRPPRLPRPRPRPWHHPRP	-0.00612
RRIRQRPPRLPRPRPRPWHRPRP	-0.0346
RRIRQRPPRLPRPRPRPWKPPRP	-0.00884
RRIRQRPPRLPRPRPRPWMGPRP	0.063
RRIRQRPPRLPRPRPRPWNAPRP	0.00391

Sequence	shrunken log2 fold change
RRIRQRPPRLPRPRPRPWPCPRP	-0.0164
RRIRQRPPRLPRPRPRPWPRPRP	0.014
RRIRQRPPRLPRPRPRPWQWPRP	-0.133
RRIRQRPPRLPRPRPRPWRIPRP	-0.416
RRIRQRPPRLPRPRPRPWRRPRP	0.241
RRIRQRPPRLPRPRPRPWSQPRP	0.0535
RRIRQRPPRLPRPRPRPWTYPRP	0.0804
RRIRQRPPRLPRPRPRPWVDPRP	0.0234
RRIRQRPPRLPRPRPRPWWIPRP	-0.185
RRIRQRPPRLPRPRPRPWYPPRP	-0.278
RRIRQRPPRLPRPRPRPYDLPRP	-0.0546
RRIRQRPPRLPRPRPRPYEEPRP	-0.434
RRIRQRPPRLPRPRPRPYFMPRP	-0.89
RRIRQRPPRLPRPRPRPYFQPRP	-0.428
RRIRQRPPRLPRPRPRPYHYPRP	-0.711
RRIRQRPPRLPRPRPRPYITPRP	-0.0324
RRIRQRPPRLPRPRPRPYIYPRP	-0.0737
RRIRQRPPRLPRPRPRPYLNPRP	-0.329
RRIRQRPPRLPRPRPRPYNFPRP	-0.0266
RRIRQRPPRLPRPRPRPYPWPRP	-0.266
RRIRQRPPRLPRPRPRPYTFPRP	-0.0307
RRIRQRPPRLPRPRPRPYTKPRP	-0.111
RRIRQRPPRLPRPRPRPYTSPRP	-0.0321
RRIRQRPPRLPRPRPRPYTYPRP	-0.157
RRIRQRPPRLPRPRPRPYVWPRP	-0.00378

Sequence	shrunken log2 fold change
RRIRQRPPRLPRPRPRPYWNPRP	-1.21
RRIRQRPPRLPRPRPRPYWRPRP	0.0113
RRIRQRPPRLPRPRPRPYYIPRP	-0.657
RRIRRRPPRLPRPRPRPAAMPRP	0.516
RRIRRRPPRLPRPRPRPAAPPRP	0.922
RRIRRRPPRLPRPRPRPAATPRP	0.335
RRIRRRPPRLPRPRPRPAAYPRP	0.585
RRIRRRPPRLPRPRPRPADNPRP	0.111
RRIRRRPPRLPRPRPRPAECPRP	-0.00699
RRIRRRPPRLPRPRPRPAFGPRP	0.348
RRIRRRPPRLPRPRPRPAFLPRP	-0.0132
RRIRRRPPRLPRPRPRPAHRPRP	-0.059
RRIRRRPPRLPRPRPRPAIGPRP	0.136
RRIRRRPPRLPRPRPRPAIPPRP	-0.0158
RRIRRRPPRLPRPRPRPAIQPRP	0.561
RRIRRRPPRLPRPRPRPAIRPRP	-0.0892
RRIRRRPPRLPRPRPRPAISPRP	-0.0296
RRIRRRPPRLPRPRPRPAKGPRP	-0.0594
RRIRRRPPRLPRPRPRPALPPRP	0.48
RRIRRRPPRLPRPRPRPALRPRP	0.648
RRIRRRPPRLPRPRPRPAMRPRP	0.538
RRIRRRPPRLPRPRPRPAMYPRP	-0.145
RRIRRRPPRLPRPRPRPANAPRP	0.055
RRIRRRPPRLPRPRPRPANKPRP	0.0263
RRIRRRPPRLPRPRPRPANWPRP	0.387
